Data reported in doi:10.1101/2022.08.03.502687 (bioRxiv, 2022).
Substitutions are numbered along the chain they refer to. In names and notes the source's numbering stands.

B1: CLC-ec1 'WT' background (C85A/H234C) treated with glutaraldehyde (natural protein)
chain: MKTDTPSLETPQAARLRRRQLIRQLLERDKTPLAILFMAAVVGTLVGLAAVAFDKGVAWLQNQRMGALVHTADNYPLLLTVAFLASAVLAMFGYFLVRKYAPEAGGSGIPEIEGALEDQRPVRWWRVLPVKFFGGLGTLGGGMVLGREGPTVQIGGNIGRMVLDIFRLKGDEARHTLLATGAAAGLAAAFNAPLAGILFIIEEMRPQFRYTLISIKAVFIGVIMSTIMYRIFNCEVALIDVGKLSDAPLNTLWLYLILGIIFGIFGPIFNKWVLGMQDLLHRVHGGNITKWVLMGGAIGGLCGLLGFVAPATSGGGFNLIPIATAGNFSMGMLVFIFVARVITTLLCFSSGAPGGIFAPMLALGTVLGTAFGMVAVELFPQYHLEAGTFAIAGMGALLAASIRAPLTGIILVLEMTDNYQLILPMIITGLGATLLAQFTGGKPLYSAILARTLAKQEAEQLARSKAASASENT
modifications: Cy5-maleimide on H234C; cross-linked with glutaraldehyde (residues not stated)
B2: CLC-ec1 R230C/L249C on the 'WT' background (C85A/H234C), disulfide cross-linked (natural protein)
chain: B1 chain with R230C, L249C

Biological target: the molecule itself
Assay: single-molecule photobleaching subunit capture

Row | Protein | binding result
1 | B1 | binds
2 | B2 | binds
